B1: Subtilisin-chymotrypsin inhibitor-2A, P01053 (parent)
chain: MSSVEKKPEGVNTGAGDRHNLKTEWPELVGKSVEEAKKVILQDKPEAQIIVLPVGTIVTMEYRIDRVRLFVDKLDNIAQVPRVG

Variants of: B1
Conditions: Hordeum vulgare; pH 6.3; 25 °C; GdnHCl; Fluorescence; MES 450 mM; reversible: yes; structure 2CI2; whole UniProt chain shown

| Variant | ddG of mutation (higher = less stable) [kcal/mol] | denaturant m value [kcal/mol/M] | denaturant midpoint (higher = more stable) [M] | unfolding free energy [kcal/mol] |
| --- | --- | --- | --- | --- |
| T59A E61A | 0.67 | 1.94 | 3.54 | 6.87 |
| E61A | 1.06 | 1.78 | 3.64 | 6.48 |
| T59D | 0.04 | 1.87 | 4.01 | 7.5 |
| T59A | 0.68 | 1.89 | 3.63 | 6.86 |
